Experimental findings from article doi:10.1101/2023.07.29.551094 are described below.

This assay deals with TslA lipase domain, purified (S. aureus). Put plainly: ITC.

B1: TilA (SAOUHSC_00405) lacking its signal sequence, His tag removed (natural protein)
chain: CGNMKDEQKKEEQTNKTDSKEEQIKKSFAKTLDMYPIKNLEDLYDKEGYRDGEFKKGDKGTWTILTGFSKSNKPGVLDDEGMVLYLNRNTKKATGYYFVNKVYDDISKNHNEKKYRVELKNNKIVLLDNVEDKKLKQKIENFKFFSQYADFKDLKNYQDGNITTNENVPSYEAQYKMNNSDKNVKKLREIYPITTNNSPNLKLYIDGDIKGSSVGYKKIEYKFSKDKGQETTLRDYLNFGPSEGENVE
By Kd is commonly meant the equilibrium constant for the complex coming apart. As usually defined, the stoichiometry N is the number of molecules, sites or subunits per partner or assembly. B1 came in with a dissociation constant Kd of 14.2 nM, a dH of -20.5 kcal/mol and a stoichiometry N of 0.88.
